From the domain aggregation screens of Martell et al. (2025) come the findings set out here.
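Also: 20 min heating vs room temperature control held 20 min.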

The data set in a line: soluble fraction after stress (log2 fold change); higher = more stays soluble; pooled small domains, quantitative proteomics. Particulars: stress: 75 degC.
Turning to “HMATIADILAEHKDKEGPLLPVLHDVQKMFGHVSEEAMREIAQALNLTRAEVYGVVSFYHDFRKEVE”, the “soluble fraction (log2)” value was -1.46. On to “HMATIIGSIGIVTQKVGLTGVPGRVYVNNESWAAISANGKEIENDTQVIVVKIDGATLIIEKKG”, for which the “soluble fraction (log2)” value was -2.22.

Turning to “HMATKEQIKRIYGLGAGLGIVGKDKDDMLHELIFSITGKDSVKQLDDSEFKAVQAELINRMKLA”, the “soluble fraction (log2)” value was determined as 0.0958.

Regarding “HMATLAVPNLMRLSQGEAMALIRLSGLSIGNVSIDSSMGSPRVIRQEPQASGGMLVLTQGDQVHLWLEGP”, the “soluble fraction (log2)” value is -3.75. The result for “HMATLQLPVPKITLYPGELIRSDHLTDQRFNARALYHSAVYKSREDIVGKVARRTLLPGQPIPVNALR” reads -1.07; that for “HMATPKRGFRKQLAPLVQSGTITREEAGELSRSSGDATALRTKIGELMKAGKLTRKEAGELYSDAFPENA”, 0.145. For “HMATPYISMAGIGKSFGPVHALKSVNLTVYPGEIHALLGENGAGKSTLMKVLSGIHEPTKGTITINNIN”, the “soluble fraction (log2)” value was 0.458. As to “HMATRAEQMAKTHQAILDTARELFLRNGYDATSTRDIANAIGITQPALYHHFKDKEVIFLAVI”, the “soluble fraction (log2)” value was -0.107.

Consider “HMATSLTEQEKLIFGLLKKQSPIELSSLKEQAGLSNKKWDKAIKGLSTQQLAKVTKTENGLFVHLLQ”, for which the “soluble fraction (log2)” value amounted to 0.00913. Take “HMATTAGIEKYLGSGLIKGIGPIYAKKIVRKFKEDTIRIIDEEPDRLLEVEGIGQKRLEIIKQAWQQQKE”: the “soluble fraction (log2)” value is -0.651.

On to “HMATVHVDGIQYDFSSPEQAKEFAYKWAKKHNLTWEVHGETIHIK”, for which the “soluble fraction (log2)” value is -0.225. With “HMATYNEVLKRLIEERKRLGLSQQEMARLVHITQSNYSKVEKGLHRLSYEELKYLSKANVDIFYILT”, the “soluble fraction (log2)” value was -0.0786.

As for “HMAVANEAIANINMKEVKQAIHNLPEIFKNPFLLYFDGYKYHEIAEMLDEPLGTIKSRIHFARKLLKSHI”, the “soluble fraction (log2)” value was -0.889. For the sequence “HMAVDVNKATAAELDSIKGIGPAISAKILEEKKKGGNFKDWNDLVTRVSGVGEANAAKFSSEGLTVGGAS”, the “soluble fraction (log2)” value turned out to be 0.0168. For “HMAVELPLETTLDIVRKYARNQEVDRRAERVEAVSAEALQTLAPRGTKLASEIVEQAKTQVLEELA”, the “soluble fraction (log2)” value was 0.476. Consider “HMAVKYTKDDFLYTEKPYEAIYDYKNDPFMHNLKIEQMAQQAAEVGVKTFKGLYKNYVKMREMQRGANV”, for which the “soluble fraction (log2)” value was 0.0263. The result for “HMAVNSALVQRNWLIGYRIAEEELQGDNRAEYGASIIKKLAKELTAEYGKGYTKTNLYHFYSFYKT” reads -0.0399; that for “HMAVNVNGIHLSSQQHEALVSIWRTGRMPEPHAGQKPWLWIQALRRRGLVSGNALRLTDKGRHIVQLLQ”, -0.288; that for “HMAVPAALVQAWLELSRRMVAGTQDVGERFAEEARKMHYGETEDRGIRGQATLTEVRDLLDEGIEVLPLLL”, -0.439. Consider “HMAVPLVRGTVTSSVGTVLLLSVGERDFFLSEGEEKDGVLLQSLSEKSAVVVVSGRAYTLSL”, for which the “soluble fraction (log2)” value is -4.42. Take “HMAVRLADMAAEKIRKMIIENKFDAGEPLSEMRLAEMFNVSRTPIREAIAILEQEGLLTTVHGKGAFIS”: the “soluble fraction (log2)” value is -0.896. With “HMAVSDAAEEYGKAGTPLVILAGKEYGSGSSRDWAAKGPYLQGVRAVLAESYERIHRSNLVGMGIVPLTYK”, the “soluble fraction (log2)” value was found to be 0.18. The result for “HMAVSDPTAGGIKALMYPNPAQDRLSVALDIPAGLDKQAQMTVTDMMGRVVTQQQVTLNDGFQVFEL” reads 0.268; that for “HMAVSSYSVKRYIRNMIQAEDPSAPFSDEALRLALLAHGIAVSRRVVTKYRMAMDIPSSSQRRKR”, -1.41. As for “HMAVSTFGRITASSLNVRSGPSTDHEKVGSLAAGRVVELLEESDGWYRIENGYISTEYVTIVDPSQ”, the “soluble fraction (log2)” value is -0.715. For “HMAVTEVKTTAVVNMRSSDSEKADKLGKAQIGDTFRVLEQRANGWTKLTDGTQEFFIKSEYLEAIA”, the “soluble fraction (log2)” value was found to be 0.109. For the sequence “HMAVVAPLAGSVARVLVADGDEIEAGQVLLVLEAMKMETEITAPKAGKVGAILVGKGDSVQGGQGLR”, the “soluble fraction (log2)” value is -0.18. Consider “HMAYLTGFHAIEELIRAGKAKGPLLVANAGPRARTIMSLATDNKIRIDRLGEHELNRLAPGNRGIALYVE”, for which the “soluble fraction (log2)” value is -0.898. With “HMDAAYVYVIGTRVNQRAGPSTSNAVMGVLSEGTRVETLRDEGQWTQIRSNFGTGWMSSSFLSSVAP”, the “soluble fraction (log2)” value is -1.28.

Take “HMDADRILHKTLKPRELEIYQLIKAYLEEHSQIANAKVQEISGLSEATTRRYLNIFVEFGLLKTS”: the “soluble fraction (log2)” value was -0.214. As to “HMDADTVGQIRVVKQILDDGRLIVVDASGNPVLVRRSSALSLTAISQGDRIIVDPSVRLAIELLPNE”, the “soluble fraction (log2)” value is -0.637.

“HMDAEELNSKAKDEFTWLEDDESETNLEYRKMVSSEDMAIVAKVAPALAAKLKYQLAHAATNMV”: the “soluble fraction (log2)” value was determined as 0.149. Regarding “HMDAEVEHLFRIIAELKEKNVAIIYISHKMDEIFRISDDITVYRDGEYIATDRAENLNVDKVIQLMVGREV”, the “soluble fraction (log2)” value was -0.429. With “HMDAEWRTLTLAPEQHQQRLDRALADSLPEFSRSYVQQLIDTGMVRVNGVLAAKSAQRVKALDQVQVELR”, the “soluble fraction (log2)” value was -0.411. For the sequence “HMDAGIVVPDTYNKPLAEAVASLEGEGFRTEKKEGYSDTVAKGNVMSQNPEAGTNAERGSTVTIVISQGPQ”, the “soluble fraction (log2)” value stood at 0.455. As to “HMDAINYEDFQLLIKQRGSFKVAFEDIMFSTKVAIEKKEDFYDFVTKLIDNGFNNMAYNYLEGFQD”, the “soluble fraction (log2)” value was -2.07.

For the sequence “HMDAISYTQFMEEAKQGRINKVEVQGRTLMVTPTDGKAYSLTSPGDLWMTTDLMKYGVNVYGAE”, the “soluble fraction (log2)” value is 0.0525.

Take “HMDALKAVYQWVTRTMMKNQTGVMQTLPNRDLIELNTQITAQRLMQAGVDPTTLKNANQVENAVNIIESR”: the “soluble fraction (log2)” value was -0.69.

Turning to “HMDAMGAVGIARAFISAGERGGDISDGLEHMHGKLLRLSSLMYTRSGKKMAARRHELLSSFVQALEEEIK”, the “soluble fraction (log2)” value is -0.327. With “HMDAMQAFPNPTVDEIHFVTPTTGRVYNAHGQLVMVLKNAQLVNVRQWSAGQYVIVREDGYAVRWIK”, the “soluble fraction (log2)” value was -1.3.

Consider “HMDAPQRVTYLLPHSRGEVVSWLHRQGEVVAQEYEAEGVRVVVDLRYAQIRQAAKQFDVLPAEG”, for which the “soluble fraction (log2)” value was -1.24. On to “HMDAPRFAAGDAVRVAGLVSKPQHNGRAGSVLSYDPVSLRYIVKVDGEDEPLKLKPENVLMPA”, for which the “soluble fraction (log2)” value was found to be 0.11. The result for “HMDAQLRVPDLTPYNYSELKENTSLYEGFTIEVVEERSTGDYAAGTVLDQDPKADTLIQDGDSTVIKLVIA” reads 0.151.

In the case of “HMDASFTYSLETHPAGVLVRVDGLEYETPFSILLPQGVHRLEVAGEERFFYLSETTHQFLEID”, the “soluble fraction (log2)” value is -2.9. The result for “HMDATGDPIADRILQALQLGELTRTQVNNVFQRHLAAARISQALNFLRSLKRADMRMEETAGRSGEVWFAI” reads -0.454. For the sequence “HMDAVKKKVQSTNTLLDVLKQMLPQTSSNTLRKMLTNQRITVDGETIHRAKHTVEKDQTVEIHPKP”, the “soluble fraction (log2)” value was 0.215. To “HMDAVSYTQFMQDAKAGRIKKVIVHQSGILDVTTTEGRRFNLTSPGDLWMVGDLVKDGVDVVGAP” belongs -0.234. Take “HMDAVTYAKGSSGETVREIQQLLLDWGYYSGEVDGIFGSRTEDAVEYFQRKNGLTVDGKVGPATLEALGIS”: the “soluble fraction (log2)” value was -0.0808. For “HMDAYMIGHNIAKWRKEKGMTQDQLAEHLSVSGQAVSKWENGASLPDIAILPKLAEIFDVTMDQLFSR”, the “soluble fraction (log2)” value worked out at 0.0534. Take “HMDDAIAEKTGGAVSSVNQRQAILDHIREAYGIELESLRSTDIERYLDDPEIPEPVKDILRDRLRGAK”: the “soluble fraction (log2)” value is 0.204. As for “HMDDDAELLLKKLSAAGGELPFHDRSEPAEIEAAFGLSKSAFKRALGKLLKAGKVVKTQQGIQLK”, the “soluble fraction (log2)” value was 0.162. Take “HMDDDIKNALDVLPEQYRMTVYYADVEGLAYKEIGAIMNTPIGTVMSRIHRGRSQLRVLLAAVAADR”: the “soluble fraction (log2)” value came to 0.316. On to “HMDDFITLVIHTPAHAQNLRNILESHGMEVRLEDFVSFKSPVAVAQRVKIRPKDLPLALKIIESGE”, for which the “soluble fraction (log2)” value worked out at 0.19. Take “HMDDFVEIDGKKYEIDMSFDNILRLFDLLKDKSLNDVTKIETGLIMLIDDSLDDYDTEEKADIFVQIF”: the “soluble fraction (log2)” value is -0.411. On to “HMDDGALQIRLGPQALQQRLDKLGYSLNKEDLDLVYQYFLHSADSKGAVYDQELRELMGEAGVE”, for which the “soluble fraction (log2)” value was -0.102. With “HMDDIHTFVYETETPFDPQKLDRYIGSLTAVYGQDMLRYKGILYFAGVDRRVVFQGVHMLAV”, the “soluble fraction (log2)” value is -0.0939. Consider “HMDDILAYEIEDKEDLENLSLGKSIGINLNKLIKPTLNSFDNSLLFLSKKGNIISYGKLNGDLFKPKKVL”, for which the “soluble fraction (log2)” value came to 0.346. “HMDDINVSNSKNIVPNVTGHTGSKAIPVLENLGLDVQYSGFGKVTNQSIPAGTRFKKGETIYLMLE”: the “soluble fraction (log2)” value turned out to be 0.03. As to “HMDDIVFPNPTKNQINVSIDGLKNIYNLSGKLLISTNDKIIDVSILKAGVYFINTNEQFYKFVK”, the “soluble fraction (log2)” value is -1.41. Take “HMDDIVPHSTKNHIIKTFLSLMNSLDIITDKNKKSLNQNVHIIFNKFNFSKKEANLFIGVLNRIQKALK”: the “soluble fraction (log2)” value amounted to 0.602. The result for “HMDDLFGNAIEMFNNQRYDMTYELLVQLLSETPNNEKAWQLLADTKFMLGDYDDALHIVGKAAK” reads -1.05.

For “HMDDPWHNLANAIVAVAADDYRSALRNEDEGLLKSLELFFHSEWYRILTDVDADRLLGMLRRERS”, the “soluble fraction (log2)” value is -1.71. As to “HMDDTPLNNVIKKIAALPENITLADKSAVLSAWEAYQALSVNLKAQVSNSELLIKAYETILQLEGEDQIK”, the “soluble fraction (log2)” value came to 0.437. “HMDDYRIEDMMTVVEEQVIRQKETNLSWFFKRAGSLNEIITIFLAALELIKVHRVYVKQEHNFDDIILRKE”: the “soluble fraction (log2)” value stood at 0.305.

Consider “HMDEAAGVLTQLRAFIAASNLSPGLRLPPERELAEQLGVTRAELRKALAVLEAEGLLWRQVGKGTFYGARP”, for which the “soluble fraction (log2)” value was -1.35. As to “HMDEAEELYQAVQALKPKYREVILLHYYQGLRVGEIAAILRAPQSTVSIRLRRARQMLNRMLG”, the “soluble fraction (log2)” value is -0.701. In the case of “HMDEALLRATLLDVLVKHHPKIGDKLDVVFALAKAWVSSGSDDDFEVLEKYMERLKPDEALMLASGFSNML”, the “soluble fraction (log2)” value is -0.886.

In the case of “HMDEDTWKLYKRAYKKYYARYMKGNMSEAAFKAWGEQAAADRDAAIEQLRATTDAALSASIIQQLKEKLNR”, the “soluble fraction (log2)” value was -0.995. The result for “HMDEEDVLNELIRRLALTADDRLLLSLSYEDGLSSRKIATLLETSAATVQRRLAGLHHQLEQALRVMGLA” reads -0.323; that for “HMDEEGDALDREYEDQIRLGDEAFDAEDWTSAQRAYTAALELRPDERYPKNRLRRLASLQEDV”, 0.245.
